Reference: patent US20260250421A1 (BIOCYTOGEN PHARMACEUTICALS BEIJING, published 2026)
Residue numbers refer to the chain shown, from its start.

B1: 3C4-18E9 (bispecific antibody, human IgG1, V domains shown)
VH 1: QVQLEQSRAEVKKPGESLRISCKGSGYSFTSYWISWVRQMPGKGLEWMGRIDPSDSYTNYNPSFQGHVTISADKSISTAYLQWSSLKASDTAMYYCARRDGSYFDFDYWGQGTLVTVSS
VH 2: QLQLQQSGPGLLKPSETLSLTCTVSGGSISSSYYFWGWIRQPPGKGLEWIGAIYYIGNTHYNPSLKSRVTISIDTSKNQFSLNLNSVTAADTAIYYCARYEDTWNWFDPWGQGTLVTVSS
VL: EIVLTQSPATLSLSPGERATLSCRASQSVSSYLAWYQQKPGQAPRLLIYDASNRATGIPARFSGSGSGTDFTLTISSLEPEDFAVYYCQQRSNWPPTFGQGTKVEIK
notes: which arm carries the knob is stated only for 3C4-6F7; also called anti-PTK7/TROP2 bispecific antibody 3C4-18E9
B2: 1A7 (antibody, human IgG1, V domains shown)
VH: QVQLVESGGGVVQPGRSLRLSCAASGFTFSNYGMHWVRQAPGKGLEWVAVIYYDGSNKFYADSVKGRFTISRDNSKNTLYLQMSSLRAEDTAVYYCARDVAPPGSRAEYFHHWGQGTLVTVSS
VL: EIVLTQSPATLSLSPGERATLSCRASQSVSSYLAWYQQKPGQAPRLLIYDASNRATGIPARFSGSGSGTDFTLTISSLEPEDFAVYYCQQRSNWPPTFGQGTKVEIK
notes: also called anti-PTK7 antibody 1A7
B3: 2A5 (antibody, V domains shown)
VH: B2 VH with E6Q, Y52W, S56R, F59Y, S84N, P103A, H111Q, H112N
VL: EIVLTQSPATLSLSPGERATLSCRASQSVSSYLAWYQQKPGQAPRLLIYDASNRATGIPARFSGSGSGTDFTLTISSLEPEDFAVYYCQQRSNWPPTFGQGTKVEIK
notes: also called anti-PTK7 antibody 2A5
B4: 2D11 (antibody, V domains shown)
VH: B2 VH with N31S, Y52F, F59Y, S84N, A92S, P102A, H111Q, H112N
VL: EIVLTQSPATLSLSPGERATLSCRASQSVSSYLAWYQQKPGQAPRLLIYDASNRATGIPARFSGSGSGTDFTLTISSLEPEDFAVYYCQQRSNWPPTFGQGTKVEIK
notes: also called anti-PTK7 antibody 2D11
B5: 2F5 (antibody, V domains shown)
VH: B2 VH with A23V, V50I, F59Y, S84N, P102A, P103A, F110L
VL: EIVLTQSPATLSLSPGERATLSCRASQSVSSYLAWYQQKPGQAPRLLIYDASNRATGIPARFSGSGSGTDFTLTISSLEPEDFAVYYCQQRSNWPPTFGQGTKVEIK
notes: also called anti-PTK7 antibody 2F5
B6: 1A11 (antibody, V domains shown)
VH: QVQLVQSGPGLVKPSETLSLTCTVSGGSINSYYWNWIRQPPGKGLEWIGYIYYSGSTNYNPSLKSRVTISVDTSKNQFSLKLSSVTAADTAVYYCARDPHDYIRGHFDLWGRGTLFTVSS
VL: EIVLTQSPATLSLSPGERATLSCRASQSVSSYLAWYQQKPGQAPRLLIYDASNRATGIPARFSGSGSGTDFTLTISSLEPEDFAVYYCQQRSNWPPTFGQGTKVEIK
notes: also called anti-PTK7 antibody 1A11
B7: 1F2 (antibody, V domains shown)
VH: QVQLVQSGGGLVQPGGSLRLSCAASGFTFSRYEMNWVRQAPGKGLEWVSYINSIGSAINYADSVKGRFTISRDNAKNSLYLQMRSLRAEDTAVYYCVREDNWNPGYWGQGTLVTVSS
VL: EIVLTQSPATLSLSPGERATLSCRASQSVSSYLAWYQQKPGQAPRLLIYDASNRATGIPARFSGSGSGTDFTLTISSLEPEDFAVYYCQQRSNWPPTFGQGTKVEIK
notes: also called anti-PTK7 antibody 1F2
B8: 3C4 (antibody, V domains shown)
VH: B1 VH 1
VL: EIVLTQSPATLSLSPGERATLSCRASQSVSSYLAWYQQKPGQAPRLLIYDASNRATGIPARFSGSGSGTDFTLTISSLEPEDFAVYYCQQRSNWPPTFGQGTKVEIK
notes: also called anti-PTK7 antibody 3C4
B9: 3E6 (antibody, V domains shown)
VH: B1 VH 1 with E5V, Q6E, R8G, K23R, N59K, N61S, S102D
VL: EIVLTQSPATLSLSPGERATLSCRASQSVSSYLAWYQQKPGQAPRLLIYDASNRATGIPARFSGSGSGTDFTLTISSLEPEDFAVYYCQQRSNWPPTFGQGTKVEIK
notes: also called anti-PTK7 antibody 3E6

Target: T1, human PTK7 on human cancer cell lines (human, UniProt Q13308 31-1070)
T1 construct: Endogenous PTK7 of human tumour cell lines; also called PTK7 on A-431, NCI-H520, NCI-N87, SK-OV-3, BT-20, HCC1954, NCI-H226, NCI-H358, HCT116, PC-3, NCI-H292, NCI-H1975 cells
T1 sequence: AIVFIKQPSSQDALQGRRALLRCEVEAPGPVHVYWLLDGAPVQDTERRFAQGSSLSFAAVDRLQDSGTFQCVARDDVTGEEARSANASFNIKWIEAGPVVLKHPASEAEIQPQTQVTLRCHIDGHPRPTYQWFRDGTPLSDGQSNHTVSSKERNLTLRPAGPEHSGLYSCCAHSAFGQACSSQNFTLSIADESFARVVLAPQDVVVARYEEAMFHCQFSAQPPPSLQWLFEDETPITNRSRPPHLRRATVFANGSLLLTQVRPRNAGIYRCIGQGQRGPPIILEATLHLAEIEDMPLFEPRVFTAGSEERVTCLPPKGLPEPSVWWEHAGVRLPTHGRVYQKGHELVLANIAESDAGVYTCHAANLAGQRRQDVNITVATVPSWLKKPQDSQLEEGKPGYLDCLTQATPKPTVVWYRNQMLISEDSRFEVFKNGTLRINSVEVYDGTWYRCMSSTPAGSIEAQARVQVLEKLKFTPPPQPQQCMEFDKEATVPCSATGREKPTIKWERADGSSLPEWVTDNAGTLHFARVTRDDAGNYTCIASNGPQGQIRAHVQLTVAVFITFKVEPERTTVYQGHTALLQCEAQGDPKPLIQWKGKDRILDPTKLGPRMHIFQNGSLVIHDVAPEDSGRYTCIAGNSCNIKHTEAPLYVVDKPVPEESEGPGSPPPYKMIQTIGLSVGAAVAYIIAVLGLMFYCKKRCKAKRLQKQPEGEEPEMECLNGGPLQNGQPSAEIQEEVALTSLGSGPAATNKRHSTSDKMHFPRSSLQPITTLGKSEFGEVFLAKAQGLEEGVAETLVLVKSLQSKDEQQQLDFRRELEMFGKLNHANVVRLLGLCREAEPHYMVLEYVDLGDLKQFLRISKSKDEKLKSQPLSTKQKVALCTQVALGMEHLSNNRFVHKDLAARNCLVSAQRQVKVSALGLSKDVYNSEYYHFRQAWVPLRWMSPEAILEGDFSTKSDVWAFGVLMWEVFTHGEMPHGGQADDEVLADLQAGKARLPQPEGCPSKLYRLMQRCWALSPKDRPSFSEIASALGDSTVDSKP
Assay: flow cytometry on NCI-H1975 cells co-expressing PTK7 and TROP2; the single curve of the bispecific is not resolved between the two targets; anti-hIgG-Fc Alexa Fluor 647 secondary antibody, MFI [A]
Description: This experiment was performed to test the binding activities of the anti-PTK7/TROP2 bispecific antibodies to different tumor cell lines. NCI-H1975 cells or NUGC-4 cells were transferred to a 96-well plate at a density of 5×10⁴ cells/well respectively. The sample antibody was added to the 96-well plate, and incubated at 4° C. for 30 min.

Binder	EC50 (read off the curve)
B1	~0.7 µg/mL

Target: T2, His-tagged human PTK7 protein (human, UniProt Q13308 31-704)
T2 construct: Bought protein; also called hPTK7-His; not shown: His tag
T2 sequence: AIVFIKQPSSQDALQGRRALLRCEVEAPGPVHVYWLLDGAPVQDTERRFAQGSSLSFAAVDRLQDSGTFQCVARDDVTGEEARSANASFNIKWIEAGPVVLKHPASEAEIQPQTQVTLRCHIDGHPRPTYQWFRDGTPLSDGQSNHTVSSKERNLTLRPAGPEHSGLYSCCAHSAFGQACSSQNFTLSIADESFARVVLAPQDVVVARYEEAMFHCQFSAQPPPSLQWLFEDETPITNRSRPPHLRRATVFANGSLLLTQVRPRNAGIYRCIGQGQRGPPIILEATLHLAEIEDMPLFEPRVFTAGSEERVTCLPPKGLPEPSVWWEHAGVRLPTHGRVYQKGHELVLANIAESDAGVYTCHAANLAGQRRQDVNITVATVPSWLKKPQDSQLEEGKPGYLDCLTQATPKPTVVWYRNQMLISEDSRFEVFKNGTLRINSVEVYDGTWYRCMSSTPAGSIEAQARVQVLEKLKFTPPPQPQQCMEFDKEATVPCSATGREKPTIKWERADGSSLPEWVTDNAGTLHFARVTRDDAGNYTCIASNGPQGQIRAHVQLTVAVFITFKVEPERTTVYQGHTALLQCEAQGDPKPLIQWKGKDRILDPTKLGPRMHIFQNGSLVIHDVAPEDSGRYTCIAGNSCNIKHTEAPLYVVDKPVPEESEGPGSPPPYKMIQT
Assay: BLI Octet binning on hPTK7-His; competitor 2A5
Description: Relative positions of target protein epitope between a pair of purified anti-PTK7 antibodies were analyzed by Biolayer Interferometry (BLI) using ForteBio Octet system at 30° C. A total of […] purified antibodies were used: 1A7, 1A11, 1F2, 2A5, 2D11, 2F5, 3C4 and 3E6.
1×HBS-EP+ buffer (10 mM 4-(2-hydroxyethyl)-1-piperazineethanesulfonic acid (HEPES), 150 mM NaCl, 3 mM ethylenediaminetetraacetic acid (EDTA) and 0.05% P20, pH7.4) diluted from HBS-EP+ buffer (10×) was used as the running buffer throughout the experiment. His-tagged human PTK7 protein was captured at a flow rate of 10 μL/min, and 200 nM of antibody (Analyte 1) was injected at a flow rate of 30 μL/min to bind the ligand. Another antibody (Analyte 2) was injected under the same conditions to determine whether the binding of different antibodies interfered with each other. The binding time was 300 s for each antibody.
The binding value of each antibody was obtained using Data Analysis HT 12.0. To quantify the interference of one antibody binding to another, a binding ratio was calculated to compare each pair of antibodies. The binding ratio is defined as the binding value of the second antibody (Analyte 2), divided by the binding value of the first antibody (Analyte 1). […] In general, antibody pairs that interfere with each other have the same or overlapping epitopes.

Binder	binding ratio
B2	0.1
B3	0.05
B4	0.15
B5	0.12
B6	0.75
B7	0.71
B8	0.93
B9	0.81
